The chains are these.
B1: PRT-253 (protein)
chain: MVTSVWTKGVTPPTNFTYGEDVLHAPYVANQGWYDITKTFNGKDDLLCGAATAGNMLHWWFDQNKEQIENYLKKHPEKQKINFNGEQMFDVKEAIDTKDSQLDSKLFEYFLEKAFPNLSTKHLGVFPDHVIDMFINGYRLSLLNHGPTPVKRGSKDPRGGIFDAVFTRGDQSKLLTNRHDFKEKTLKEISDLIKQELTEGKALGISHTYANVRINHVINLWGADFDAEGNLEAIYVTDSDSNKSIGMKKYFVGVNSDGKVAISAKEIEEDNIGAQVLGLFTLSTGQDIWNQTN
B2: PRT-582 (protein)
chain: MANQEIRYSKAKPKVITSVWTKGVTPPTQFTKNEDVFHAPYLANQGWYDITKTFNGKDDLLCGAATAGNMLHWWFDQNKEQIERYLKKHPEKQKINFNGEQMFDVKEAIDTKDSQTNSKLFNYFKDKAFPYLSTKHLGVFPDHVIDMFINGYRLSLTNHGPTPVKEQNKDPRGGIFDDVFTRGDQSKLLTSRHDFKEKTLKEISDLIKQELKEGKALGLSHTYANVRINHVINLWGADFDAEGNLVAIYVTDSDSNASIGMKKYYVGVNSAGKVAISAKEIEDDNIGAQVLGLFTLSTGKDIWEKTNLEHHHHHH
B3: PRT-533 (protein)
chain: MANQEIRYSSDSEWANKKVWVYGITPPEEGAWKYSTYYLPWKKEYGWYDCNKRNPTADGMMCWAATASNLLHWWIAQNKEYIDLYGDKYKGPDKINFNGEQMFDVKEYIDPLDKPQESDIFQCFIDKSFADLSTKHEAGYGDAGINWFIHGIIPSSPAHGPTPVKLDYPYNPAGYFKDVFPRGDGVVLLGNNGDFKELSKERFNETIKDALKNKKAIGLSIGPVNVRSSHVVTIWGAEFDENGDVSYIYMADNNDRWGVGCIRYQIVYEEGGTYTCYKTEIIPSDRPIPINRLVTLELGEEYWKQTNLEHHHHHH
B4: PRT-553 (protein)
chain: MANQEIRYSEETPKTITSIWTKGVTPPTDFIKNEDVLHAPYVANQGWYDITKTFNGKDDLLCGAATAGNMLHWWFDQNKEEIENYLKKHPEKQKINFNGEQMFDVKEAIDTKDSQTDSKLFEYFKDKAFPYLSTKHLGVFPDHVIDMFINGYRLSLTNHGPTPVKRGTKDPRGGIFDAVFTRGDQTKLLTERHDFKEKTLNEISDLIKQELTEGKALGLSHTYANVRINHVINLWGADFNSEGNLEAIYVTDSDSNASIGMKKYYVGVNAAGKVAISAKEIEDDNIGAQVLGLFTLSTGKDIWEQTNLEHHHHHH
B5: PRT-586 (protein)
chain: MANQEIRYSEETPKTITSVWTKGVTPPTDFIYNEDVLHAPYIANQGWYDITKTFNGKDDLLCGAATAGNMLHWWFDQNKEQIERYLKKHPEKQKINFNGEQMFDVKEAIDTKDSQTDSKLFEYFKDKAFPYLSTKHLGVFPDHVIDMFINGYRLSLTNHGPTPVKRGTKDPRGGIFDAVFTRGDQSKLLTSRHDFKEKTLNEISDLIKQELTEGKALGLSHTYANVRINHVINLWGADFNAEGNLEAIYVTDSDSNASIGMKKYYVGVNSAGKVAISAKEIEGDNIGAQVLGLFTLSTGQDIWEQTNLEHHHHHH
B6: PRT-576 (protein)
chain: B5 chain with E10K, E11A, K14S, T28E, D29N, I42L, D117N, R166E, G167Q, E304Q
B7: PRT-595 (protein)
chain: B5 chain with K14S, Y32Q, R84N, K119A, T199N, E304N
B8: PRT-566 (protein)
chain: B5 chain with K14S, D29Q, Y32Q, R84N, K119A, E304N
B9: PRT-245 (protein)
chain: MVTSVWTKGVTPPANFTQGEDVFHAPYVANQGWYDITKLFNGKDDLLCGAATAGNMLHWWFDQNKDQIKRYLEEHPEKQKINFNGEQMFDVKEAIDTKNHQLDSKLFEYFLEKAFPNLSTKHLGVFPDHVIDMFINGYRLSLLNHGPTPVKEGSKDPRGGIFDAVFTRGDQSKLLTSRHDFKEKNLKEISDLIKKELTEGKALGLSHTYANGRINHVINLWGADFDSNGNLKAIAVTDSDSNASIGMKKYFVGVNSSGKVAISAKEIKEDNIGAQVLGLFTLSTGQDSWNQTN
B10: PRT-526 (protein)
chain: MANQEIRYSEETPKTITSVWTKGVTPPTDFIKNEDVLHAPYIANQGWYDITKTFNGKDDLLCGAATAGNMLHWWFDQNKEEIERYLKKHPEKQKINFNGEQMFDVKEAIDTKDSQTDSALFEYFKDKAFPNLSTKHLGVMPDHVLDMFINGYYLSLGKHGPTPVKRGTKDPRGGIFDAVFTRGDQSKLLTSRHDFKEKTLKEISDLIKQELTEGKALALSHTYANVRINHVINLWGADFDSEGNLEAIYVTDSDSNASIGMKKYYVGVNSAGKVAISAKEIEGDNIGAQVLGLFTLSTGQDIWEQTNLEHHHHHH
B11: PRT-261 (protein)
chain: MVTSVWTKGVTPPTNFTYGEDVLHAPYVANQGWYDITKLFNGKDNLLCGAATAGNMLHWWFDQNKEQIENYLKKHPEKQKINFNGEQLFDVKEAIDTKDSQLDSKLFDYFKEKAFPNLSTKHLGVFPDHVIDMFINGYRLSLLNHGPTPVKRGSKDKRGGIFDAVFTRGVQSKLLTNRHDFKEKTLKEISDLIKQELTEGKALGISHTYANGRINHVINLWGADFDAEGNLEAIYVTDSDTNPSIGMKKYFVGVNSSGKVAISAKEIEEDNIGAQVLGLFTLSTGQDIWNQTN
B12: PRT-375 (protein)
chain: MSQTEDSESLQRLRDIEDFQAEKKKQNVVYTKWLDGVDVKDHDFRKIVDGNEAYYATPLLNGRGFYDINKDFNRDNDKCAAAVAANMFHYWLDRNRDNVDRFLRQNPEKHGIIELPDGQLKLSDFLNTYESDDGYRDKSKLFDFISENFNGPVWTDKLLDNYINGYAYNYKYGRLIEDSTKNTSKINFFKEVFNEKILTNNHSIRNQNELSVLLSEALYTGKAIGLSYGPAGTRHSLGHIISVWGADLDADGNVVAIYVTDSDDKKLTIGDERVGLKRYKISTDDEGRLRLTAYEETHNTGGQIRGLWTLDTGKQAWADYFDKTEQTGTDQAEQ
B13: PRT-191 (protein)
chain: MANQEIRYSEVTPYHVTSVWTKGVTPPANFTQGEDVFHAPYVANQGWYDITKTFNGKDDLLCGAATAGNMLHWWFDQNKDQIKRYLEEHPEKQKINFNGEQMFDVKEAIDTKNHQLDSKLFEYFKEKAFPYLSTKHLGVFPDHVIDMFINGYRLSLTNHGPTPVKEGSKDPRGGIFDAVFTRGDQSKLLTSRHDFKEKNLKEISDLIKKELTEGKALGLSHTYANVRHSINHVINLWGADFDSNGNLKAIYVTDSDSNASIGMKKYFVGVNSAGKVAISAKEIKEDNIGAQVLGLFTLSTGQDSWNQTN
B14: PRT-192 (protein)
chain: MANQEIRYSEVTPYHVTSVWTKGVTPPANFTQGEDVFHAPYVANQGWYDITKTFNGKDDLLCGAATAGNMLHWWFDQNKDQIKRYLEEHPEKQKINFNGEQMFDVKEAIDTKNHQLDSKLFEYFKEKAFPYLSTKHLGVFPDHVIDMFINGYRLSLTNHGPTPVKEGSKDPRGGIFDAVFTRGDQSKLLTSRHDFKEKNLKEISDLIKKELTEGKALGLSHTYANVRINHVINLWGADFDSNGNLKAIYVTDSDDKKLTISNASIGMKKYFVGVNSAGKVAISAKEIKEDNIGAQVLGLFTLSTGQDSWNQTN
B15: PRT-193 (protein)
chain: B14 chain with S261G, N262D, A263E, S264R

Numbering of substitutions follows the chain as printed.

For one data set, the target named is pooled human IgG (human IgG1, 2, 3 and 4).
B1 had an Enzyme Activity Endpoint Assay: Fab′2 of 912 ng/µL, an Enzyme Activity Endpoint Assay: Fc of 334 ng/µL, an Enzyme Activity Endpoint Assay: IgG of 0 ng/µL and an Enzyme Activity Endpoint Assay: scIgG of 0 ng/µL.
Take B2: the Enzyme Activity Endpoint Assay: Fab′2 worked out at 28 ng/µL, the Enzyme Activity Endpoint Assay: Fc was determined as 183 ng/µL, the Enzyme Activity Endpoint Assay: IgG was determined as 329 ng/µL and the Enzyme Activity Endpoint Assay: scIgG stood at 754 ng/µL.
For B3, in that order: 0 ng/µL, 0 ng/µL, 1140 ng/µL and 0 ng/µL.
The corresponding values for B4 are 79 ng/µL, 229 ng/µL, 111 ng/µL and 764 ng/µL.
Turning to B5, the Enzyme Activity Endpoint Assay: Fab′2 was determined as 478 ng/µL, the Enzyme Activity Endpoint Assay: Fc stood at 322 ng/µL, the Enzyme Activity Endpoint Assay: IgG is 77 ng/µL and the Enzyme Activity Endpoint Assay: scIgG came out at 458 ng/µL.
The corresponding values for B6 are 903 ng/µL, 365 ng/µL, 0 ng/µL and 0 ng/µL.
The corresponding values for B7 are 1040 ng/µL, 452 ng/µL, 0 ng/µL and 0 ng/µL.
B8 displayed an Enzyme Activity Endpoint Assay: Fab′2 of 621 ng/µL, an Enzyme Activity Endpoint Assay: Fc of 366 ng/µL, an Enzyme Activity Endpoint Assay: IgG of 0 ng/µL and an Enzyme Activity Endpoint Assay: scIgG of 0 ng/µL.
With B9, the Enzyme Activity Endpoint Assay: Fab′2 is 423 ng/µL, the Enzyme Activity Endpoint Assay: Fc turned out to be 277 ng/µL, the Enzyme Activity Endpoint Assay: IgG is 46 ng/µL and the Enzyme Activity Endpoint Assay: scIgG is 204 ng/µL.
For B10, the Enzyme Activity Endpoint Assay: Fab′2 was 246 ng/µL, the Enzyme Activity Endpoint Assay: Fc is 379 ng/µL, the Enzyme Activity Endpoint Assay: IgG is 110 ng/µL and the Enzyme Activity Endpoint Assay: scIgG is 627 ng/µL.
The corresponding values for B11 are 0 ng/µL, 76 ng/µL, 615 ng/µL and 317 ng/µL.
The corresponding values for B12 are 170 ng/µL, 115 ng/µL, 0 ng/µL and 180 ng/µL.

The target of a further data set is pooled human IgG (human IgG1,2,3 and 4).
B13 returned an Enzyme Activity Endpoint Assay: Fab'2 of 36 ng/µL, an Enzyme Activity Endpoint Assay: Fc of 183 ng/µL, an Enzyme Activity Endpoint Assay: IgG of 161 ng/µL and an Enzyme Activity Endpoint Assay: scIgG of 358 ng/µL.
B14: the Enzyme Activity Endpoint Assay: Fab'2 was found to be 24 ng/µL, the Enzyme Activity Endpoint Assay: Fc came to 204 ng/µL, the Enzyme Activity Endpoint Assay: IgG was 109 ng/µL and the Enzyme Activity Endpoint Assay: scIgG came out at 461 ng/µL.
The protein B15 showed an Enzyme Activity Endpoint Assay: Fab'2 of 39 ng/µL, an Enzyme Activity Endpoint Assay: Fc of 193 ng/µL, an Enzyme Activity Endpoint Assay: IgG of 181 ng/µL and an Enzyme Activity Endpoint Assay: scIgG of 355 ng/µL.
